Each block holds one substance with its values, some of them ahead of it.
Tests used:
p300 full length (human) = p300 full length (human) (UniProt Q09472); test: EMSA; conditions: EMSA: 10 mM HEPES-NaOH pH 7.3, 50 mM KCl, 5 mM MgCl2, 0.5 mM DTT, 5% glycerol, 0.5 mg/ml BSA; 1 h incubation; 1 nM DNA (Fig 2B); 4% native PAGE, 0.5x TBE, 4 C
SOX2DBD (human) = SOX2DBD (human) (UniProt P48431); test: EMSA; conditions: EMSA: 10 mM HEPES-NaOH pH 7.3, 50 mM KCl, 5 mM MgCl2, 0.5 mM DTT, 5% glycerol, 0.5 mg/ml BSA; 1 h incubation; 1 nM DNA (Fig 2B); 4% native PAGE, 0.5x TBE, 4 C
SOX2 mutant E78A (human) = SOX2 mutant E78A (human) (UniProt P48431)
SOX2 mutant E86A (human) = SOX2 mutant E86A (human) (UniProt P48431)
[1] = biological target: full-length human SOX2 (human) (UniProt P48431); test: BLI; SOX2 (0.2 mg/ml) immobilised on an AR2G chip, quenched with 1 M ethanolamine; p300 fragments in PBS; global fit to a 1:1 binding model (BLItz Pro v.1.2.1.5)
full-length human SOX2 (human), sequence (P48431 whole entry, the tested form may be a part): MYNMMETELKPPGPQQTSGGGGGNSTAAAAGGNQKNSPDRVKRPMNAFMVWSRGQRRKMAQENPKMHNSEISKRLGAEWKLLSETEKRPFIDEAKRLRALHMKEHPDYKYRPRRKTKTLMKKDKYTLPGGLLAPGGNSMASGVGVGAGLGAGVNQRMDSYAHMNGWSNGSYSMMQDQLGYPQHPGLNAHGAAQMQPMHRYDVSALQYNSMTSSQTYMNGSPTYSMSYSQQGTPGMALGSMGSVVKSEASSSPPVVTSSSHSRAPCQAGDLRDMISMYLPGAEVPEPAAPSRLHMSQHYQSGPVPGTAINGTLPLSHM

SOX2DBD (human), sequence (P48431 39-127): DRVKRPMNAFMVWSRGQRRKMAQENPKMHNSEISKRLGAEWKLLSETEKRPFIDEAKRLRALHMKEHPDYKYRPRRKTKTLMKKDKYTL
SOX2 mutant E86A (human), sequence (P48431 whole entry E86A, the tested form may be a part): as the sequence (P48431 whole entry, the tested form may be a part) above, with E86A counted along it
SOX2 mutant E78A (human), sequence (P48431 whole entry E78A): as the sequence (P48431 whole entry, the tested form may be a part) above, with E78A counted along it
p300 full length (human), sequence (Q09472 whole entry): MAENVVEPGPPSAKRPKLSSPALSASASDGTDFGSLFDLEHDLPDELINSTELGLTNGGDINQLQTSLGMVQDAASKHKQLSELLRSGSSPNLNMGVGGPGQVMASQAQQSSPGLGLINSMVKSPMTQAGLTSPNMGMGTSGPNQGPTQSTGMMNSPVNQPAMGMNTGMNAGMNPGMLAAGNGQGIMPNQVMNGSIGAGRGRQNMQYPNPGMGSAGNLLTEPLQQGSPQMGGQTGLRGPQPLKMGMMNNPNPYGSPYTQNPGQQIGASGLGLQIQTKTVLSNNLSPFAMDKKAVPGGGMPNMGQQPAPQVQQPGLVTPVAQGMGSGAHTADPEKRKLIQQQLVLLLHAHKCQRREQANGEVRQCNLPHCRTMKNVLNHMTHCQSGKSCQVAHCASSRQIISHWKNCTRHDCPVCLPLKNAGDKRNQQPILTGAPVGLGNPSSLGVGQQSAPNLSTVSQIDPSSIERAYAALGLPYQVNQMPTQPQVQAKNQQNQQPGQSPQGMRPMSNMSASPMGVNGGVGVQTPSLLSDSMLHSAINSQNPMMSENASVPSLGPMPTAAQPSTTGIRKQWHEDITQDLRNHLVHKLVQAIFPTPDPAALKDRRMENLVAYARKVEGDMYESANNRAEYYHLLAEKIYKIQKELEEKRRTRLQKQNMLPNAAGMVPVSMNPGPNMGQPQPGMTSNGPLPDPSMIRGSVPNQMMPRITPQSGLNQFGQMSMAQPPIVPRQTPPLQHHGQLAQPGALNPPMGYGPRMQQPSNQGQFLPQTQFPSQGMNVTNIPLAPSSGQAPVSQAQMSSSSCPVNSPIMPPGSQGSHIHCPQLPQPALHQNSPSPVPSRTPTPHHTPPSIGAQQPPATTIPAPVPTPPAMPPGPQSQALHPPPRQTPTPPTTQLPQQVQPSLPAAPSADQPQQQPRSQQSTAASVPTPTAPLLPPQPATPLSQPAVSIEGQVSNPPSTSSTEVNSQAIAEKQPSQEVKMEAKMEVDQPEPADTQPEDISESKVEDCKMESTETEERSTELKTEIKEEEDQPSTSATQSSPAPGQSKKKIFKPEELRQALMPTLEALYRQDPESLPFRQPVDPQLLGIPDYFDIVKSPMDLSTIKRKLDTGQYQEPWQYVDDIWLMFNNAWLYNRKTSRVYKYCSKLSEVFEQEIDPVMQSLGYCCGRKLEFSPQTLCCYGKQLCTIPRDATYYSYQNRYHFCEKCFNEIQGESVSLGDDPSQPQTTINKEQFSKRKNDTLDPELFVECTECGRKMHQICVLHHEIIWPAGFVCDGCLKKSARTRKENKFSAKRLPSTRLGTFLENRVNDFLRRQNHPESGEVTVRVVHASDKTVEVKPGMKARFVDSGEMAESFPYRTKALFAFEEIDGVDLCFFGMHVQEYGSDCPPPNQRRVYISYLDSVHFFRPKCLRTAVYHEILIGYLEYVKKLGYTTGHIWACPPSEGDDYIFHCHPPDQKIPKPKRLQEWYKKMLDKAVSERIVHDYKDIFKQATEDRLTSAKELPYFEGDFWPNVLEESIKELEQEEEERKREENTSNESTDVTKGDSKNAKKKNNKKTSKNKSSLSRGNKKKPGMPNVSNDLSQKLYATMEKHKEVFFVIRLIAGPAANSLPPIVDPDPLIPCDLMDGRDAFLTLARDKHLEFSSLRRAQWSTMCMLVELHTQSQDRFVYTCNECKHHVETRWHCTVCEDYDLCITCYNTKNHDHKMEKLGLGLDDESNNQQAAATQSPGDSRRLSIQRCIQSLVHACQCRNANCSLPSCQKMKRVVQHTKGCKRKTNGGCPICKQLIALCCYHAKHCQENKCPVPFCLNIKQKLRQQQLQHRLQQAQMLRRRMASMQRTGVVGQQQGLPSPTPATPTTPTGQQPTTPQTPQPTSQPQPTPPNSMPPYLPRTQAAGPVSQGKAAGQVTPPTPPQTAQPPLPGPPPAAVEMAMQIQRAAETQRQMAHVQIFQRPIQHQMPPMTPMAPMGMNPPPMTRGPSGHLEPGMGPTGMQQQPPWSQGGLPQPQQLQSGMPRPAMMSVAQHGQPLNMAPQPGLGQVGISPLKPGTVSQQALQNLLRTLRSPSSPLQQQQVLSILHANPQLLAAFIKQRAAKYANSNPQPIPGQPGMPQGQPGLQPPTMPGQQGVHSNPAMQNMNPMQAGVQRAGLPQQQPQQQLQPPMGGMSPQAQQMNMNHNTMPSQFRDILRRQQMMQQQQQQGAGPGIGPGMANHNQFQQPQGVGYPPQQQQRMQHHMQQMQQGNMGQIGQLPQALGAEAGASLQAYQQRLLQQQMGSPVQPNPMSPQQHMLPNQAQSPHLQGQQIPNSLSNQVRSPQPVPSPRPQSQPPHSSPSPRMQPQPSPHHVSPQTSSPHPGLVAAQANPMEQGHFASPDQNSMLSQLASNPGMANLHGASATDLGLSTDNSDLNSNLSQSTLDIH

Substance: GCGGTCCATTATTCCAATTGATTTCAATTCTATTGATAGTCAGATTGAGAGACTCAGGTGCCTCTTTTGAATATCTTCTTTTGTTGGGGCCGCACACCCTGAGAGGTGGTGGAAGTCTGAGTTAGACTTTAGCCTGATCTACATAGCAAGTTCCGGGACATGCAAGGACTAC (double strand) [SM]
binding (p300 full length (human)): no binding
binding signal (SOX2DBD (human)): 71 % bound

Substance: GTAGTCCTTGCATGTCCCGGAACTTGCTATGTAGATCAGGCTAAAGTCTAACTCAGACTTCCACCACCTCTCAGGGTGTGCGGCCCCAAGATAAGAAGATATTCAAAAGAGGCACCTGAGTCTCTCAATCTGACTATCAATAGAATTGAAATCAATTGGAATAATGGACCGC (double strand) [dSM]
binding (SOX2DBD (human)): no binding

luciferase activity of pGL3-SM in cells expressing the SOX2 mutant, relative to wild-type SOX2 (SOX2 mutant E78A (human)): 30%
luciferase activity of pGL3-SM in cells expressing the SOX2 mutant, relative to wild-type SOX2 (SOX2 mutant E86A (human)): 30%
Substance: full-length p300 (Protein One), Q09472 1-2414

Kd [1]: 2680 nM
koff [1]: 0.0469 s⁻¹
kon [1]: 12300 M⁻¹ s⁻¹
Substance: p300 KIX domain (aa 566-646) (from UniProt Q09472 566-646) (domain or fragment)

Reference: paper PMC10711550
